Measurements published in patent US20240043859A1, “HERBICIDE-RESISTANT PROTEIN, AND GENE AND USE THEREOF” (QINGDAO KINGAGROOT CHEMICAL COMPOUND CO., LTD., priority 2020, published 2024).
“Also recorded” adds a separate entry of the source.

Assays:
Type in all cases: in vivo
Arabidopsis thaliana [1] = experiment: Herbicide resistance of transgenic Arabidopsis thaliana seedlings on plate medium (root growth); details: Arabidopsis overexpressing the gene
In short: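 T2 lines overexpressed AAD from the AtUbi10 promoter with the MAS terminator, with hygromycin selection; two events per construct were tested on plates against 2,4-D, 2,4-DB sodium and MCPA. The screening medium was MS plus 0.3 μM 2,4-D. Seeds were stratified 3 days at 4 °C, grown at 22 °C on 16 h light, and root elongation was compared with wild type after one week.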

soybean William82 = experiment: Spray testing of transgenic soybean T1 seedlings; details: 2,4-D 4.48 kg/ha foliage spray, 10 days after spraying
Description: 1. Vector construction: the pQY2330 vector (see FIG. 8-1) was used as the overexpression vector, containing a Bar resistance gene that can be used as a selection marker for glufosinate. The AAD-like gene, QYD42, SEQ ID NO. 83, was linked to the Xho I restriction site by seamless cloning to construct the transgenic expression vector pQY2330, of which the expression cassette consisted of a double CaMV35S promoter, the AAD-like gene QYD42 and a […] Nos terminator.
2. Genetic transformation of soybeans: Soybean transformation was carried out using the Agrobacterium-mediated cotyledon nodes transformation method (Pareddy D, Chennareddy S, Anthony G, et al. Improved soybean transformation for efficient and high throughput transgenic production[J]. Transgenic Research, 2020, 29(968)). A monoclone of the Agrobacterium (EHA105) comprising the overexpression vector pQY2330 was inoculated into 5 ml YEP liquid medium (containing 25 mg/L Rifampicin and 50 mg/L Kanamycin) and shaking-cultured at 220 rmp/min, 28° C. for 8 hours. And then 0.2-0.3 ml bacteria solution was transferred to 200 ml YEP liquid medium (containing 25 mg/L Rifampicin and 50 mg/L Kanamycin) and shaking-cultured at 220 rmp/min, 28° C. overnight until the bacteria reached the exponential growth stage, then centrifuged at 4000 rmp/min for 20 min to collect the cells into a 50 ml centrifuge tube (sterilized). […]

Arabidopsis thaliana [2] = experiment: Herbicide resistance of transgenic Arabidopsis thaliana seedlings on plate medium (root growth); details: plate medium with 2,4-D (0.3 μmol)

B1: QYD42: AAD-like enzyme, SEQ ID NO. 83; expressed from vectors pQY2309 (Arabidopsis), pQY2329 (maize), pQY2330 (soybean) (protein)
chain: MQITPIADATFGATVTGLRLATLDDAGFARLHAAWLQHALLVFPGQFLTNAEQIGFAKRFGPIERIGGGDIVAISNVKADGTVRQHSPAEWDDMMKVIVGNMAWHADSTYMPVMAQGAVFSAEVVPPTGGRTCFADMRAAYDALDDATRALVHQRSARHSLVYSQSKLGHVQQAGSAYVGYGMDTTATPLRPLVKRHPETGRLSLLIGRHAHAIPGLEEAESERFLEDLVAWACQPPRVVAHHWTAGDVVLWDNRCLLHRAEPWDFTLPRVMWHSRLAGHPETEAAPLV
modifications: Synthetic polypeptide, QYD42, D42
Resistance of transgenic Arabidopsis thaliana: 2,4-D (Arabidopsis thaliana [1]): Yes
Resistance of transgenic Arabidopsis thaliana: MCPA (Arabidopsis thaliana [1]): Yes
Resistance of T1 transgenic soybean to 2,4-D (spray) (soybean William82): no phytotoxicity; also recorded: remains normal
2,4-D resistance of T1 generation transgenic seedlings (seminal root growth) (Arabidopsis thaliana [2]): showing tolerance to 2,4-D
